Series [1] deals with the molecule itself. Description: crystal structure; lipidic cubic phase (monoolein with 10% cholesterol), without any antibody Fab fragment; 100 mM Tris pH 8.5, 100 mM sodium malonate, 30% PEG 400, 2.5% MPD; 16°C.
Series [2] concerns the molecule itself. Nature of the series: DEER spectroscopy; one MTSSL spin label per subunit, inter-subunit distance distributions; pH 7.5 and pH 4.5; 83 K, Q-band; four-pulse protocol (five-pulse for position 374).

Substitutions are numbered along the chain they refer to. Names and notes keep the numbering of the source.

B1: CLC-ec1 QQQ mutant (E148Q/E203Q/E113Q) (natural protein, E. coli)
chain: MKTDTPSLETPQAARLRRRQLIRQLLERDKTPLAILFMAAVVGTLVGLAAVAFDKGVAWLQNQRMGALVHTADNYPLLLTVAFLCSAVLAMFGYFLVRKYAPEAGGSGIPEIQGALEDQRPVRWWRVLPVKFFGGLGTLGGGMVLGRQGPTVQIGGNIGRMVLDIFRLKGDEARHTLLATGAAAGLAAAFNAPLAGILFIIEQMRPQFRYTLISIKAVFIGVIMSTIMYRIFNHEVALIDVGKLSDAPLNTLWLYLILGIIFGIFGPIFNKWVLGMQDLLHRVHGGNITKWVLMGGAIGGLCGLLGFVAPATSGGGFNLIPIATAGNFSMGMLVFIFVARVITTLLCFSSGAPGGIFAPMLALGTVLGTAFGMVAVELFPQYHLEAGTFAIAGMGALLAASIRAPLTGIILVLEMTDNYQLILPMIITGLGATLLAQFTGGKPLYSAILARTLAKQEAEQLARSKAAS
notes: CLC-ec1, prokaryotic (E. coli) CLC Cl-/H+ exchange transporter, from plasmid pASK-CLC-ec1; Helix A (N-terminal) has no density in the model; also called ClC-ec1 triple mutant (E113Q, E148Q, E203Q)
Take B1: in series [1], the binding result is “binds”.

B2: D417C/QQQ CLC-ec1 (cysteine-less background), spin-labeled (natural protein, E. coli)
chain: B1 chain with C85A, C302A, C347S, D417C
modifications: MTSSL spin label on the substituted cysteine at 417
notes: CLC-ec1, prokaryotic (E. coli) CLC Cl-/H+ exchange transporter, from plasmid pASK-CLC-ec1; Helix P; source: purified under reducing conditions, then labeled with MTSSL
As to B2, the binding result in series [2] was “binds”.

B3: WT CLC-ec1 (cysteine-less background) D417C, spin-labeled (natural protein, E. coli)
chain: MKTDTPSLETPQAARLRRRQLIRQLLERDKTPLAILFMAAVVGTLVGLAAVAFDKGVAWLQNQRMGALVHTADNYPLLLTVAFLASAVLAMFGYFLVRKYAPEAGGSGIPEIEGALEDQRPVRWWRVLPVKFFGGLGTLGGGMVLGREGPTVQIGGNIGRMVLDIFRLKGDEARHTLLATGAAAGLAAAFNAPLAGILFIIEEMRPQFRYTLISIKAVFIGVIMSTIMYRIFNHEVALIDVGKLSDAPLNTLWLYLILGIIFGIFGPIFNKWVLGMQDLLHRVHGGNITKWVLMGGAIGGLAGLLGFVAPATSGGGFNLIPIATAGNFSMGMLVFIFVARVITTLLSFSSGAPGGIFAPMLALGTVLGTAFGMVAVELFPQYHLEAGTFAIAGMGALLAASIRAPLTGIILVLEMTCNYQLILPMIITGLGATLLAQFTGGKPLYSAILARTLAKQEAEQLARSK
modifications: MTSSL spin label on the substituted cysteine at 417
notes: as for B2
Take B3: in series [2], the binding result is on record as “binds”.
